According to IntAct's records for PubMed 18022368:

B1: MAD2L1-binding protein (Homo sapiens), Q15013 (parent)
chain: MAAPEAEVLSSAAVPDLEWYEKSEETHASQIELLETSSTQEPLNASEAFCPRDCMVPVVFPGPVSQEGCCQFTCELLKHIMYQRQQLPLPYEQLKHFYRKPSPQAEEMLKKKPRATTEVSSRKCQQALAELESVLSHLEDFFARTLVPRVLILLGGNALSPKEFYELDLSLLAPYSVDQSLSTAACLRRLFRAIFMADAFSELQAPPLMGTVVMAQGHRNCGEDWFRPKLNYRVPSRGHKLTVTLSCGRPSIRTTAWEDYIWFQAPVTFKGFRE

Variants of: B1
Settings: with md2l1_human MAD2L1, Q13257
Chain of md2l1_human MAD2L1, Q13257 (Q13257 whole entry): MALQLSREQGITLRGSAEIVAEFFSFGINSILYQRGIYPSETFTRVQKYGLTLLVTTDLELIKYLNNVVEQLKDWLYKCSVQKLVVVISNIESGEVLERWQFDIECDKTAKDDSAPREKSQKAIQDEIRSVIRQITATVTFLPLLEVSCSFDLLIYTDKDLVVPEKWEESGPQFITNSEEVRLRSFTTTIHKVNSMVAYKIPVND

Effect of a mutation on the interaction, decreasing interaction:
Q83A
F191A
Q83A;F191A
